# According to the DeepSol protein solubility set:
# Experiment: soluble on expression in E. coli; label from the status in PepcDB or PDB records
row,Sequence,soluble on expression in E. coli
1,MRFLIPIIFTTLPLCLQAQEDPCASAPSEAAKIMCKQIHRWDDGARAASKKKKIALPPGMAKGMAAEFAPIASNIYQCMDLPCLCSYLRGTASGNGCTLPNGRPLQKSVRKEYRTLTDDERNRLHAAFRALKNNGEYERIGRIHSQMSAAGGAHSGPAFLPWHREFVKRVEFALRQVDPTVNLPYWDSTLDSRLPRPADTIMFSDYLMGSTGLVNDGPFTNWRTLAGRAQILRAVGAQGAPLSQNDIDFVMRQTQIDQVLSFTAPQQGCPYRTDFNCLEYTHGNVHIFVGGDMFDTATSSNDPSFFLHHAFIDFVWEEWRLARQSRADREIAFPPDNQLCASAQHFGASPMQPFSPMRNIDGLSNKYTDNLYSYAPRPTCQAGGDCGSKFLFCDTSTGAARCVSRIRPGSQCGQFRVNPCFSGICQNGVCVLSSTAPRPTPAPTTPTPQNPVQSQESCFNENQCCASWAASGECSRNTAYMNEWCKASCGVCKPKYRLADDCTDRHTQCSSWSRSGECTKNQLWMTENCRKSCNKCGRSRAQECGGGGTTVTTTTPAPAQQCDNSDGCFNENVCCAVWGLMGECRKNTRYMACNCRVSCGHCYPEDYNYGSCVDYHRSCAGWARVGECQKNPWMAENCRSSCNSCYTQSELRRMCGTTAGSVAPVAQVRQTNPSRQPPRGGWGRDDFGDNGGWGGNGGGGWGNNDPWGGSRWGGGRGGWGGGGWGGGGWGKRSIRAANASISMPSFDPDLL,not soluble
2,MKRASVWMLLCLFFMLSGCANPSFPPVVDSLSVVISLDVKAETVTFLNAKNGSKIARWNINEPFQGGALSPDGRTLLLYGRDLDRVYRYDLAGGKPLSEWKTGNGIVSAAPSPDGRTWFFGDSTHHAVRVVSRGGKEIARLSVGRSPMTLLVNRQGTELYAIDFQDGRAFVIDASRLRVIRSFSVPKFALGGLMRERRGELWVGGHGSGNKVEKNIHVYSLRDGRLLRTIAAPVMPVDFVETGRGVFVLSHGSNTVYQFLPSGKRLNSVLVGANPFAMEAAGSRLYIASYDSDEIIVVDEATLRPLARWKTGDGPLQLFIREGRT,not soluble
3,MGSDKIHHHHHHMSEAILNICSVSKRFGDNLANDDISLSLGKGEIVALLGENGAGKTTLMSILFGHYVPDSGKVLVEGRELPPGKPRAAIRAGIGMVHQHFSLAPNLTVLENVMAGTERLWHLRSGTSAARRKLHRICQRFGLTVEPDARVGDLSVGEQQRVEILKALYNDAHILVLDEPTAVLTNLEAERLFSTLKDMAREGLSLIFISHKLDEVMAAANRIVVLRGGRKVAERLAKETNKAELAELMVGRRVARPVREPSTPGEVVLKVADVSVSIDGVERLKSIDFSLRAGEVLGIIGVSGNGQTTLAHLLSGTLRRDKGDLLLFGEPIGDLTVDDAVRAGIGRIPEDRNKEGAIGEMAIWENAVLERLPRFSRYGLVDRPSGQAFAGQIIDAFDVRGGRPTTRTRLLSGGNMQKLILGRNLMDRPRILLAAQPARGLDEGAVAAVHERLLEARRAGTAVLLISEDLEEVMALADRIQAIVNGRLSPPIAADSASATKLGLMMAGEWNEEHEVPHAF,not soluble
4,GHMTKLFSKVKESIEGIKMPSTLTINGKAPIVAYAELIAARIVNALAPNSIAIKLVDDKKAPAAKLDDATEDVFNKITSKFAAIFDNGDKEQVAKWVNLAQKELVIKNFAKLSQSLETLDSQLNLRTFILGGLKYSAADVACWGALRSNGMCGSIIKNKVDVNVSRWYTLLEMDPIFGEAHDFLSKSLLELKKSANVGKKKETHKANFE,soluble
5,MGSDKIHHHHHHLNGHGYHVTGTKTTQDGVEAARMSGIECYQLVLTPELECDADELSALLQVDVLIVTLPASRTAEGGEGYAQAVQQLVNMARVFHVPRIIFTSSTSVYGDGSGTVRETSPLQPTTVAGKTLVSLEQWLQHLPDISVDILRLAGLVGGDRHPGRFLAGKTNLPRGNHGVNLVHQEDVLAAILLLLKLPNGGHIYNLCATEHPARQDFYPEQARRLHVSTPQFAPVTDSSQGRIVDGQRICHELGFDYQYPNPSTMPLNAGESR,not soluble
6,SHLHPLHKNTTGYDLRHLFIGSEGTLGIITAATLKLFANPLDKATAWVGIPDIESAVRLLTETQAHFAERLCSFELIGRFAAELSSEFSKLPLPTHSEWHILLELTDSLPDSNLDDRLVEFLYKKGFTDSVLAQSEQERIHMWALRENISASQRKLGTSIKHDIAVPIGRVADFVRRCAKDLEQNFKGIQIVCFGHLGDGSLHYNTFLPEILSNEVYRYENDINSTVYRNVLACNGTIAAEHGIGIIKKQWLDKVRTPAEIALMKSIKQHLDPYNIMNPGKLLP,not soluble
7,MGHHHHHHSHMSVPRGPIAQWADGAISPNGHRPQLRAASGEDSTEEALAAAAAPWEGGPVPGVDTSPFAKSLGHSRGEADLFDSGDIFSTGTGSQSVERTKPKAKIAENPANPPVGGKAKSPMFPALGEASSDDDLFQSAKPKPAKKTNPFPLLEDEDDLFTDQKVKKNETKSSSQQDVILTTQDIFEDDIFATEAIKPSQKTREKEKTLESNLFDDNIDIFADLTVKPKEKSKKKVEAKSIFDDDMDDIFSTGIQAKTTKPKSRSAQAAPEPRFEHKVSNIFDDPLNAFGGQ,not soluble
8,MYKDFANFIRTNKADLLNNWMNEMEKQSDQLINDIAKEAMYEETSKEFVDLIVSNVTENGSKFNEKLDDFAEKVVHLGWPIHFVTTGLRVFGLLVYTAMRDEDLFLKREEKPEDDAYYRFETWLSSMYNKVVTAYADTWEKTVSIQKSALQELSAPLLPIFEKISVMPLIGTIDTERAKLIIENLLIGVVKNRSEVVLIDITGVPVVDTMVAHHIIQASEAVRLVGCQAMLVGIRPEIAQTIVNLGIELDQIITTNTMKKGMERALALTNREIVEKEG,not soluble
9,MNDETPRCPYNSLYKPLNLIKSKPDGCFKHNGQCTYGKNLVESVDDGNSRTPYNSIYEPLSLNKPKPDGRSSNGKKPVDNEYVNLPVLSEEQKLADKLAAKLRKLEVKEPKSKKRGSKERKKKKSEPVESTYESLATIEGSTNYSGPVTTESLESNVKFHHASQTAYIGVYSSADAEAQVKNRGEFALYHLFEVGNGIDHLTATLPLMLVYYTTTKKHRHYPVRESGGKGMVQYSVDCGYPIVRKHYSLNQLVQYYKSFGSIQMKQEDTCSEEFSWWLE,not soluble
10,GSLPEVLQAPVGSSILVQCHYRLQDVKAQKVWCRFLPEGCQPLVSSAVDRRAPAGRRTFLTDLGGGLLQVEMVTLQEEDAGEYGCMVDGARGPQILHRVSLNILPP,soluble
11,MSLKDINIGVVLPLTGTVAAYGQDVFNGIELANKLQPKLSNGDVIKLITIDTKGDKLETSNGVNRLIATDKVLGIIGEATTPNTIQAISIAEEKKIPLIAPVASGDKLLDKKKYASRVCFKDSFQGDKFATYVSKDLGLKNAVIIIDQSNVYSLGLARAFENSFKNNGGKIIKKLVINSGDKDFRAVVSQLKSLNPDFVYMPIYHPEAALIARQARQIGFDKLLVAGDGVNNQTFIDLGGSAVNGVIFTDSFDYNSPSTQLGKDFVAAYEKVKGTKELPAFSAMGADAYFVMLNAMNACVDNLSSECINSKIHQTKDFQAVGGVISIDESGNAIRSVVIKEIQNQKQNYKTIINEGHHHHHH,soluble
12,MGSDKIHHHHHHMVGALAILMVGYSAAEAGGLRDLLEQGGLSAKVDCVAMADMLPGRLQQQEWDLVLTDDRPDLSAAQVLGLLARLGLDVPVIALVSRQDEQAAAHLIAAGVQDVLLKSDPVQLMATIRGCQRYIGHLRDLREAQLALERSEARFRAIASNLPGLVFQFVLESDGSVFFPYVSEGSRSLLGLSPDYLQKKPNSFARLIVATDVASYDQSLQDSCEHLSAWNWEGRIQAKGDMDVKWISLRATPRRTPRGAVLWDGIMLNITRNKQIELEIARSRAQLEELSAYSQKAKEQERTRIAREIHDDIGGTLTAIKCELVPCLDNSSRTPEFYRNKAEAVESLVDMVIDSTRRIALDLRPGVLDCGIVAAVQWQAREFNQRTGVSCTVACDYEDISLDGDLAVAIFRIFQEALTNIAKHANASEVRVKLAETGSQVYLEVTDNGCGITNPDMEKVNSFGIRSMRERCQQLGGQFHIQGGPLAGTEVLIRIPVNGQSTVGRESRLN,not soluble
13,MSRQNPVRSTRGNSLRAREAQQAQDAPLFQESSSNVFVVEKVLNKRLTRGGSEYYIKWQGFPESECSWEPIENLQCDRMIQEYEKEAAKRTTRKRRYSPQPSTSSSAELQPSTSDEWAGKTLKTIIGITKAPGELHFLCKFSDDSVHLIPLREANVRFPSQVIKFYETRLVLQGVSPTIPGGMS,not soluble
14,QQFPNECQLDQLNALEPSHVLKAEAGRIEVWDHHAPQLRCSGVSFVRYIIESKGLYLPSFFSTAKLSFVAKGEGLMGRVVPGCAETFQDSSVFQPGGGSPFGEGQGQGQQGQGQGHQGQGQGQQGQQGQQGQQSQGQGFRDMHQKVEHIRTGDTIATHPGVAQWFYNDGNQPLVIVSVLDLASHQNQLDRNPRPFYLAGNNPQGQVWIEGREQQPQKNILNGFTPEVLAKAFKIDVRTAQQLQNQQDNRGNIIRVQGPFSVIRPPLRSQRPQEEVNGLEETICSARCTDNLDDPSNADVYKPQLGYISTLNSYDLPILRFLRLSALRGSIRQNAMVLPQWNANANAVLYVTDGEAHVQVVNDNGDRVFDGQVSQGQLLSIPQGFSVVKRATSEQFRWIEFKTNANAQINTLAGRTSVLRGLPLEVISNGYQISLEEARRVKFNTIETTLTHSSGPASYGGPRKADA,soluble
15,MDETTIRRLTEEDVDIFRAMRLEALRTEPAAYASTAADWEKLSADEWRTRLTQNNVFAAFWNDAPVGIMGLMRQGSSKMAHRATLIMVYVRAEARGTGIARALLEAVKSFAGDNGIRQIELAVSAENPAAASFYKRAGFSQIGCVPGGILHEGREIDDIMMACRVDAEGKE,not soluble
16,MIPLLGIISLSLNISGPKYRLEMGLGGKVAVDSTFSNEGVQKATEPNGTKVTYYYGGESKGFIEFSSDWKLKINEKCDINFGPRIKLLNISHIAKNIFFFLGITAGAGFEFNYNIRENVKFYTGIDGLIGMGTFMNLNNSSSKDTESKKISVIYDFIPESNVTVGTKINDKYNVGLFVDILQGYFGLKAGYTF,not soluble
17,MDRVIEDKELGRLVVRDNVRAKRLVFRTKADAIYISIPLGVTMREVKEAIEKLRPRLLDSRQKLVRPLIDLNYRIETEYFKLSLVSGKRERFLAHSELGEMRIICPPTADFTDSNLQDWLRKVIEEALRRNAKIILPPRLYMLSEKHRLPYESVQINSSRGRWGSCSSRKKINLSYFLVLLPKHLIDYVLLHELCHTCEMNHGDRFWNLLNGLTDGKALELREELKRYKTEILEHHHHHH,not soluble
18,MRKLFIALTFLLVPACLSAQLGGKIYLQRADSLLQRVLSLYEVKKYGLLMETYPRNPKQQITYTANTGSEVTQQEVSFLWPYSAMVSGCVSLYKTSGNKKYKKLMDKQIKPGLDLYWDTTRQPECYQSYPAFAGQNDRYYDDNDWVAIDFCDYYAVTKNKEYLKKAIALHDYIYSGWSDELGGGIYWCEQKKESKNTCSNAPATVLCMKLYKLTKDKKYLDQAMATYQWTRDNLRDPSDFVYWDNKNLQGKIGYAKYTYNSGQMIQAGVLLYQATGDEQYLKDAQQTAKGSYEHFLKPQPTVKGEMKFFPSSPWFNVILFRGLKALYEVDKNDTYVKAMIDNADYAWQYTRDENGLLNNDWSGNRKDKFKSLLENSCMIELYSEISELLEHHHHHH,not soluble
19,MAHHHHHHMLRVIVRRLAWRPAAIQHLPDLGSKDAPKKTEDTQRQYRPLSLRARQALAEKSDEVQYHVITQDWFGQRVDTFLTQHHPEWSYETMKTLVQQGHIYRYRKNGKKRFTRITDRLEFDELLVVPTPVFYERQLAPPTGVLQESKKPTHFKLSSQVREMAHNMVLFKNEHVIVINKPHGVPMMPTSDPQEMNIAAMLSAWKYTNSTKPIVCHNLDKETSGCVVLARSKNAHRMLARMFVKRVVPNSVYWGFCVGKPSVNFGRIRMHFEMTRGTKGDIIVARPSPTKTSKVGIAEFVVNASALEFGSFISFYPLTTRRHQERIMAAHALRSPLLGDAKYGGESAFPSSMSLFWDPEDKGLPLHLHHRKIQLPYKNSTGEFVCVTAPLPIHMEKTFKKLGWPCDVDDPLIPG,not soluble
